Results as given in patent publication US8822420B2, “Peptides and aptamers thereof as specific modulators of mutant p53 function” (Universita Degli Studi di Trieste, priority 2008, dated 2014).
No end group written: not given here. Ahx = NCCCCCC(=O)O

Experiments:
[1] = biological target: T1, p53 R175H (Homo sapiens, UniProt P04637, R175H); assay: Co-immunoprecipitation of EGFP-TNV-PAs with p53 R175H in H1299 cells; assay type: binding; conditions: H1299 cells co-transfected with p53 R175H and EGFP-TNV-PAs, IP anti-GFP
T1 construct: expression of full-length point mutants (hereinafter identified also as mut-p53 or mutant p53); expressed in transfected cells; host or cells: H1299 (p53-null)

[2] = biological target: T1, p53 R175H; assay: EGR1-Luc luciferase assay in H1299 cells, p53 R175H; assay type: cell-based; conditions: peptide 1.6, 4, 20 μM
Protocol: (§1) (a) The effect of PAs on mutant p53 transactivating activity was analyzed in MG63 cells transiently transfected with Myc-Luc reporter along with constructs expressing p53 D281G or empty vector and with p[…] vectors expressing PAs or control vectors pLPC-EGFP (EGFP) or p[…] (TNV). The promoter activity measured in each experiment was normalized to the value measured in the absence of mutant p53. RLU: Relative Luciferase Units. […] Expression of mutant p53 and PAs was analyzed by Western Blot with the indicated antibodies. (b) The effect of FsA79 peptide on the transactivation of EGR1 promoter by mutant p53 was analyzed in H1299 cells, transfected with EGR1-Luc reporter along with plasmids encoding either p53R175H (left) or p53R273H (right) and treated with increasing amounts of FsA79 peptide (1.6, 4, 20 μM). […] (c) The effect of PAs on p53 wt transcriptional activity was analyzed in H1299 cells transfected with p21-Luc reporter, wt p53-expressing vector or empty vector along with constructs expressing the EGFP-TNV-PAs or control vectors as in (a). […] (d) The effect of PAs on the transcriptional activity of TAp73α was analyzed as in (c). […] (e) The effect of PAs on p53 wt transcriptional activity was analyzed in H1299 cells transfected with Bax-Luc reporter, wt-p53 expressing vector or empty vector together with constructs expressing EGFP-TNV-PAs or control vectors as in FIG. 3(c). […]

[3] = biological target: T2, p53 R273H (Homo sapiens, UniProt P04637, R273H); assay: EGR1-Luc luciferase assay in H1299 cells, p53 R273H; assay type: cell-based; conditions: peptide 1.6, 4, 20 μM
T2 construct: expression of full-length point mutants (hereinafter identified also as mut-p53 or mutant p53); expressed in transfected cells; host or cells: H1299 (p53-null)
Protocol: as §1

[4] = test system: Sk-Br-3 cells; assay: FACS analysis of DNA content (propidium iodide) of EGFP-positive Sk-Br-3 cells; assay type: cell-based
Protocol: (a) The apoptotic effect of PAs was analyzed in U20S (expressing p53 wt), H1299 (p53 null), Sk-Br-3 (expressing p53R175H) and MDA-MB-468 (expressing p53R273H) cells. Cells were transfected either with constructs expressing EGFP-TNV-PAs or with pLPCcontrol vector, harvested after 36 hours and stained with propidium iodide before analyzing the DNA content of EGFP-positive cells by flow cytometry. Histograms represent the average and the s.d. of the percentage of cells with sub-G1 DNA content measured in three independent experiments. […] At least 10000 EGFP-positive cells were analyzed in each acquisition. Histograms represent the average and s.d. of three independent experiments. […] Expression of the overexpressed EGFP-TNV-PAs as well as endogenous cleaved PARP (p85), p53R175H and the proapoptotic protein Bax was analyzed by Western Blot with the indicated antibodies. (d) Analysis of AnnexinV-PE-Cyan5 binding of MDA-MB-468 cells treated and analyzed as described in FIG. 4(c). […] FACS analysis of DNA content was then performed as in (a). Aliquots of cell lysates untreated (NT) or treated with 50 μM Etoposide (Eto) were analyzed by Western Blot. […] Cells were transfected with EGFP-PAs and then left untreated or treated with 100 μM PRIMA-1. After additional 20 hours cells were harvested and analyzed as in FIG. 4(a).
Sk-Br-3, MDA-MB-468, H1299 or U20S cells were seeded in 6 wells and transfected with pLPCEGFP-TNV16mers or pLPCEGFP-TNV or pLPC. For cell cycle analysis, cells were collected by trypsinization, recovering also the supernatants, and resuspended in PBS/0.1% Nonidet P-40 (NP-40) containing 2 μg/ml RnaseA. 10 min later, 10 μg/ml propidium iodide was added. Cells were analyzed by cytofluorimeter (FACScalibur) after additional 20 minutes.

[5] = test system: Sk-Br-3 cells; assay: AnnexinV-PE-Cyan5 staining by flow cytometry, Sk-Br-3 cells; assay type: cell-based; conditions: Sk-Br-3, GFP positive cells, 36 hours after transfection
Protocol: (§2) (a) The apoptotic effect of PAs was analyzed in U20S (expressing p53 wt), H1299 (p53 null), Sk-Br-3 (expressing p53R175H) and MDA-MB-468 (expressing p53R273H) cells. Cells were transfected either with constructs expressing EGFP-TNV-PAs or with pLPCcontrol vector, harvested after 36 hours and stained with propidium iodide before analyzing the DNA content of EGFP-positive cells by flow cytometry. Histograms represent the average and the s.d. of the percentage of cells with sub-G1 DNA content measured in three independent experiments. […] At least 10000 EGFP-positive cells were analyzed in each acquisition. Histograms represent the average and s.d. of three independent experiments. […] Expression of the overexpressed EGFP-TNV-PAs as well as endogenous cleaved PARP (p85), p53R175H and the proapoptotic protein Bax was analyzed by Western Blot with the indicated antibodies. (d) Analysis of AnnexinV-PE-Cyan5 binding of MDA-MB-468 cells treated and analyzed as described in FIG. 4(c). […] Aliquots of cell lysates untreated (NT) or treated with 50 μM Etoposide (Eto) were analyzed by Western Blot. […] After additional 20 hours cells were harvested and analyzed as in FIG. 4(a).
(§3) Sk-Br-3, MDA-MB-468, H1299 or U20S cells were seeded in 6 wells and transfected with pLPCEGFP-TNV16mers or pLPCEGFP-TNV or pLPC. […] Cells were analyzed by cytofluorimeter (FACScalibur) after additional 20 minutes.

[6] = test system: MDA-MB-468 cells; assay: AnnexinV-PE-Cyan5 staining by flow cytometry, MDA-MB-468 cells; assay type: cell-based; conditions: MDA-MB-468, GFP positive cells, 36 hours after transfection
Protocol: as §2, §3

[7] = test system: Sk-Br-3 cells; assay: PARP cleavage (p85) by Western Blot in Sk-Br-3 cells; assay type: cell-based
Protocol: (a) The apoptotic effect of PAs was analyzed in U20S (expressing p53 wt), H1299 (p53 null), Sk-Br-3 (expressing p53R175H) and MDA-MB-468 (expressing p53R273H) cells. Cells were transfected either with constructs expressing EGFP-TNV-PAs or with pLPCcontrol vector, harvested after 36 hours and stained with propidium iodide before analyzing the DNA content of EGFP-positive cells by flow cytometry. Histograms represent the average and the s.d. of the percentage of cells with sub-G1 DNA content measured in three independent experiments. […] At least 10000 EGFP-positive cells were analyzed in each acquisition. Histograms represent the average and s.d. of three independent experiments. […] Expression of the overexpressed EGFP-TNV-PAs as well as endogenous cleaved PARP (p85), p53R175H and the proapoptotic protein Bax was analyzed by Western Blot with the indicated antibodies. […] FACS analysis of DNA content was then performed as in (a). Aliquots of cell lysates untreated (NT) or treated with 50 μM Etoposide (Eto) were analyzed by Western Blot. […] Cells were transfected with EGFP-PAs and then left untreated or treated with 100 μM PRIMA-1. After additional 20 hours cells were harvested and analyzed as in FIG. 4(a). […]
To specifically evaluate the effect on cells expressing the aptamers, propidium-iodide staining was measured only in the GFP positive population.

[8] = biological target: T3, wild-type p53 (Homo sapiens, UniProt P04637); assay: Bax-Luc luciferase assay in H1299 cells, wild-type p53; assay type: cell-based
T3 construct: expressed in transfected cells; host or cells: H1299
Protocol: (§4) (a) The effect of PAs on mutant p53 transactivating activity was analyzed in MG63 cells transiently transfected with Myc-Luc reporter along with constructs expressing p53 D281G or empty vector and with pLPC-EGFP-TNV vectors expressing PAs or control vectors pLPC-EGFP (EGFP) or pLPC-EGFP-TNV (TNV). The promoter activity measured in each experiment was normalized to the value measured in the absence of mutant p53. RLU: Relative Luciferase Units. […] Expression of mutant p53 and PAs was analyzed by Western Blot with the indicated antibodies. (b) The effect of FsA79 peptide on the transactivation of EGR1 promoter by mutant p53 was analyzed in H1299 cells, transfected with EGR1-Luc reporter along with plasmids encoding either p53R175H (left) or p53R273H (right) and treated with increasing amounts of FsA79 peptide (1.6, 4, 20 μM). Luciferase assays were performed and represented as in (a). (c) The effect of PAs on p53 wt transcriptional activity was analyzed in H1299 cells transfected with p21-Luc reporter, wt p53-expressing vector or empty vector along with constructs expressing the EGFP-TNV-PAs or control vectors as in (a). Luciferase assays were performed and represented as in (a). (d) The effect of PAs on the transcriptional activity of TAp73α was analyzed as in (c). […] (f) Effect of PAs on TAp73a transcriptional activity on Bax-Luc reporter was analyzed as described in FIG. 3(d). […]

[9] = biological target: T4, TAp73α (Homo sapiens, UniProt O15350); assay: Bax-Luc luciferase assay in H1299 cells, TAp73α; assay type: cell-based
T4 construct: expressed in transfected cells; host or cells: H1299
T4 sequence (O15350 1-636): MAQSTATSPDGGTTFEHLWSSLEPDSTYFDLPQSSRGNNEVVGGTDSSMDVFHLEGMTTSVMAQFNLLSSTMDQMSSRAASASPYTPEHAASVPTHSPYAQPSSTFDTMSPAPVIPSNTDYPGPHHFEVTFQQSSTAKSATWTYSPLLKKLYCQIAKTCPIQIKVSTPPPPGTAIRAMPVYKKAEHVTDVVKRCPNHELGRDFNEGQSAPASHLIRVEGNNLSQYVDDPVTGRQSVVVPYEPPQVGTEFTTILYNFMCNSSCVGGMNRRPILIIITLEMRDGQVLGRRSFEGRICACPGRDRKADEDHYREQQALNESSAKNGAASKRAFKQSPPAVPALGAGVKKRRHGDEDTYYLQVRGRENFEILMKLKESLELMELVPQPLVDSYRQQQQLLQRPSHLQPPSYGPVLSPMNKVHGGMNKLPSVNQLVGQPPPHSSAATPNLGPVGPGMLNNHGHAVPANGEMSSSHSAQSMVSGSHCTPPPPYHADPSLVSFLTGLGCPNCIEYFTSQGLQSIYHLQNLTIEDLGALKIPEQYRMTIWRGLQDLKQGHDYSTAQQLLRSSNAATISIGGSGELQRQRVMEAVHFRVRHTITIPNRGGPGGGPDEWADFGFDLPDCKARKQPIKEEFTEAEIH
Protocol: as §4

[10] = biological target: T5, p53 D281G (Homo sapiens, UniProt P04637, D281G); assay: c-Myc-Luc luciferase assay in MG63 cells; assay type: cell-based; conditions: EGFP-TNV-PAs, 36 hours
T5 construct: expression of full-length point mutants (hereinafter identified also as mut-p53 or mutant p53); expressed in transfected cells; host or cells: MG63 (p53-null)
Protocol: as §1

AKYCQCAAKVRVTAAM [A3]
binding to p53 R175H by co-immunoprecipitation [1]: showed a stronger interaction with p53 R175H

FAM-Ahx-peptide sA79 ({FAM-Ahx}-DVADWESCGEYWCYRV; cysteine pairing not given here) [FsA79, fluoresceinated version of sA79 peptide]
effect on transactivation of EGR1-Luc reporter by p53 R175H [2]: inhibits the transactivation activity of both mutants
effect on transactivation of EGR1-Luc reporter by p53 R273H [3]: inhibits the transactivation activity of both mutants

GPVVPRTQYMSLAFGW [A29]
binding to p53 R175H by co-immunoprecipitation [1]: showed a stronger interaction with p53 R175H
apoptotic response (sub-G1) compared with Etoposide treatment alone ([4]; Sk-Br-3): comparable to that observed upon drug treatment alone
sub-G1 peak compared with PRIMA-1 ([4]; Sk-Br-3, PRIMA-1 100 μM for 20 hours): comparable to that induced by PRIMA-1
AnnexinV positive cells [5]: approximately 30%
AnnexinV positive cells [6]: approximately 30%
cleaved p85 fragment of PARP-1 [7]: evident increase

IQITLTGWSARVTTSG [A60, 16mer peptide aptamer in thioredoxin scaffold; free peptide not synthetized]
binding to p53 R175H by co-immunoprecipitation [1]: showed a stronger interaction with p53 R175H
effect on transactivation activity of wild-type p53 on Bax-Luc reporter [8]: all aptamers, but A60, do not significantly affect
effect on transactivation activity of p73 on Bax-Luc reporter [9]: all aptamers, but A60, do not significantly affect

QRGLYCSCVTNQNAEV [B6, reference compound]
effect on transactivation activity of mutant p53 on c-Myc-Luc reporter [10]: did not showed any effect
sub-G1 peak (apoptotic cell death) ([4]; Sk-Br-3 (p53 R175H), GFP positive population, 36 hours after transfection): unable to induce apoptosis
AnnexinV positive cells [5]: less than 15%
AnnexinV positive cells [6]: less than 15%

VWAESCDDCGEYWRYV [A79]
binding to p53 R175H by co-immunoprecipitation [1]: showed a stronger interaction with p53 R175H
